The values below come from patent US20250352667A1.

Assay [1] has as its target KEAP1 (wild-type full-length), His-tagged (human) (UniProt Q14145). Briefly: AlphaScreen; 38.4 nM FLAG-NRF2, 150 nM His-KEAP1; signal against NRF2 only; control for I86V.
Assay [2] shares this target. The assay is described as follows: AlphaScreen; FLAG-NRF2 wt isoform 1 19.2 nM, His-KEAP1 150 nM; Repeat 1; positive control for Q75R.
Assay [3] has the same target. Briefly: AlphaScreen; 9.6 nM FLAG-NRF2, 150 nM His-KEAP1; Rep 3; control for I86V.
For assay [4] the target is unchanged. Briefly: AlphaScreen; 2.4 nM FLAG-NRF2, 150 nM His-KEAP1; Rep 2; control for I86V.
For assay [5] the target is unchanged. Briefly: AlphaScreen; 19.2 nM FLAG-NRF2, 150 nM His-KEAP1; Repeat 1 (same value as in Table 26).
For assay [6] the target is unchanged. The assay is described as follows: AlphaScreen; FLAG-NRF2 wt isoform 1 9.6 nM, His-KEAP1 150 nM; Repeat 1; positive control for Q75R.
Assay [7] shares this target. The assay is described as follows: AlphaScreen; 76.8 nM FLAG-NRF2, 150 nM His-KEAP1; Rep 1; control for I28V.
For assay [8] the target is unchanged. Briefly: AlphaScreen; 307.2 nM FLAG-NRF2, 150 nM His-KEAP1; Rep 2; control for I28V.
Assay [9] has the same target. The assay is described as follows: AlphaScreen; 38.4 nM FLAG-NRF2, 150 nM His-KEAP1; Rep 2; control for I28V.
The target is the same in assay [10]. The assay is described as follows: AlphaScreen; NRF2 wt isoform 1 76.8 nM, KEAP1 150 nM; signal against NRF2-only control; control for Q75R.
Assay [11] has the same target. Briefly: AlphaScreen; FLAG-NRF2 wt isoform 1 19.2 nM, His-KEAP1 150 nM; Rep 1; positive control for I86V.
For assay [12] the target is unchanged. The assay is described as follows: AlphaScreen, all variants on one plate; upper condition (38.4 nM NRF2), KEAP1 150 nM; the reference itself.
Assay [13] has the same target. Briefly: AlphaScreen; 38.4 nM FLAG-NRF2, 150 nM His-KEAP1; Rep 2; control for I86V.
Assay [14] shares this target. Briefly: AlphaScreen; 614.4 nM FLAG-NRF2, 150 nM His-KEAP1; signal against NRF2 only; control for I28V.
Assay [15] has the same target. Briefly: AlphaScreen; FLAG-NRF2 I86V 4.8 nM, His-KEAP1 150 nM; Rep 3.
Assay [16] shares this target. The assay is described as follows: AlphaScreen; FLAG-NRF2 I86V 2.4 nM, His-KEAP1 150 nM; Rep 2.
Assay [17] has the same target. Briefly: AlphaScreen; FLAG-NRF2 I86V 1228.8 nM, His-KEAP1 150 nM; Rep 2.
Assay [18] shares this target. Briefly: AlphaScreen; NRF2 I86V 38.4 nM, KEAP1 150 nM; relative to wild-type NRF2 isoform 1 (100 %).
For assay [19] the target is unchanged. Briefly: AlphaScreen; FLAG-NRF2 I86V 307.2 nM, His-KEAP1 150 nM; Rep 1.
Assay [20] has the same target. The assay is described as follows: AlphaScreen; NRF2 Q75R 9.6 nM, KEAP1 150 nM; signal against NRF2-only control.
Assay [21] has the same target. Briefly: AlphaScreen; FLAG-NRF2 Q75R 19.2 nM, His-KEAP1 150 nM; Rep 2.
The target is the same in assay [22]. Briefly: AlphaScreen; NRF2 Q75R 614.4 nM, KEAP1 150 nM; signal against NRF2-only control.
The target is the same in assay [23]. The assay is described as follows: AlphaScreen; 38.4 nM FLAG-NRF2, 150 nM His-KEAP1; signal against NRF2 only.
Assay [24] has the same target. Briefly: AlphaScreen; 19.2 nM FLAG-NRF2, 150 nM His-KEAP1; signal against NRF2 only.
The target is the same in assay [25]. The assay is described as follows: AlphaScreen; 153.6 nM FLAG-NRF2, 150 nM His-KEAP1; signal against NRF2 only.
Assay [26] shares this target. Briefly: AlphaScreen; 19.2 nM FLAG-NRF2, 150 nM His-KEAP1; Rep 2.
Assay [27] shares this target. The assay is described as follows: AlphaScreen; 1228.8 nM FLAG-NRF2, 150 nM His-KEAP1; Rep 2.

Changes are numbered by the printed parent chain. Numbers in names are those of the source.

Sequence of KEAP1 (wild-type full-length), His-tagged (human) (Q14145 2-624 limits assumed): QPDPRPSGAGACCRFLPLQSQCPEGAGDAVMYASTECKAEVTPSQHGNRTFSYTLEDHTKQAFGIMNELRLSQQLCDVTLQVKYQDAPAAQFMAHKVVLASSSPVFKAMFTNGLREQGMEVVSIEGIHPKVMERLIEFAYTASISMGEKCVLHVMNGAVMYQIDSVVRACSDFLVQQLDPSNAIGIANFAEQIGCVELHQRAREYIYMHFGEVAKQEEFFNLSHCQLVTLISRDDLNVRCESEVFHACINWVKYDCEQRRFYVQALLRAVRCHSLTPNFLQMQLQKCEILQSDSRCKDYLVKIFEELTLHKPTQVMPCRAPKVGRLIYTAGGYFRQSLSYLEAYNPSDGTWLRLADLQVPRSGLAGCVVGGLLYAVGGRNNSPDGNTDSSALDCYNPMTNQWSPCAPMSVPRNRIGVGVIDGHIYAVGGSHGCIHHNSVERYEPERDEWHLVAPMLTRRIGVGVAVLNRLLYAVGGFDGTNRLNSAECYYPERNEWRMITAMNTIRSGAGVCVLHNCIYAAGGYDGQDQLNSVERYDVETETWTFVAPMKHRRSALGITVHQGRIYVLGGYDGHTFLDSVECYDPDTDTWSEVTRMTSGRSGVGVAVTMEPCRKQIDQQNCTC

B1: NRF2 isoform 1 (wild-type full-length), FLAG-tagged (protein)
chain: MMDLELPPPGLPSQQDMDLIDILWRQDIDLGVSREVFDFSQRRKEYELEKQKKLEKERQEQLQKEQEKAFFAQLQLDEETGEFLPIQPAQHIQSETSGSANYSQVAHIPKSDALYFDDCMQLLAQTFPFVDDNEVSSATFQSLVPDIPGHIESPVFIATNQAQSPETSVAQVAPVDLDGMQQDIEQVWEELLSIPELQCLNIENDKLVETTMVPSPEAKLTEVDNYHFYSSIPSMEKEVGNCSPHFLNAFEDSFSSILSTEDPNQLTVNSLNSDATVNTDFGDEFYSAFIAEPSISNSMPSPATLSHSLSELLNGPIDVSDLSLCKAFNQNHPESTAEFNDSDSGISLNTSPSVASPEHSVESSSYGDTLLGLSDSEVEELDSAPGSVKQNGPKTPVHSSGDMVQPLSPSQGQSTHVHDAQCENTPEKELPVSPGHRKTPFTKDKHSSRLEAHLTRDELRAKALHIPFPVEKIINLPVVDFNEMMSKEQFNEAQLALIRDIRRRGKNKVAAQNCRKRKLENIVELEQDLDHLKDEKEKLLKEKGENDKSLHLLKKQLSTLYLEVFSMLRDEDGKPYSPSEYSLQQTRDGNVFLVPKSKKPDVKKN
As to B1, the S/N in assay [1] is 3; in assay [10], 2.5; in assay [14], 1. Besides, the A-counts (NRF2 plus KEAP1) amounted to 1360 A-counts in [2], 1024 A-counts in assay [6] and 3300 A-counts in [11]. Further, the A-counts in assay [3] was determined as 2410 A-counts; in assay [4] it was 959 A-counts; in assay [5] it was 1980 A-counts; in assay [7] it was 2000 A-counts; in [8], 1780 A-counts; in assay [9], 1900 A-counts. The same molecule had an A-counts in [13] of 2850 A-counts. This molecule also came in with a % Disruption in Binding in assay [12] of 0%.

B2: NRF2 isoform 1 (I86V full-length), FLAG-tagged (protein)
chain: B1 chain with I86V
As for B2, the A-counts (NRF2 plus KEAP1) turned out to be 2180 A-counts in assay [15], 1610 A-counts in assay [16], 1580 A-counts in assay [17] and 2210 A-counts in assay [19]. The Binding Percentage in assay [18] was 93.7%.

B3: NRF2 isoform 1 (Q75R full-length), FLAG-tagged (protein)
chain: B1 chain with Q75R
In the case of B3, the S/N in assay [20] turned out to be 2.4; in [22] it was 0.8. Moreover, the A-counts (NRF2 plus KEAP1) in [21] stood at 1280 A-counts.

B4: NRF2 isoform 1 (I28V full-length), FLAG-tagged (protein)
chain: B1 chain with I28V
As to B4, the S/N worked out at 2.7 in assay [23], 3.2 in assay [24] and 1.7 in assay [25]. The figures for the A-counts in [26] and in assay [27] were 1700 A-counts and 1030 A-counts, respectively.
